Test [1] concerns the target human CCBE1 fused to a V5 tag (human) (UniProt Q6UXH8). Description: cell-based or functional assay.
In test [2] the target is T1, uncleaved full-length VEGF-C (58 kDa precursor) (Homo sapiens (Human), UniProt P49767 32-419).
T1 construct: Made by transfected 293T cells from the mammalian VEGF-C construct of Joukov et al 1997; also called VEGF-C precursor; prepro-VEGF-C
T1 sequence: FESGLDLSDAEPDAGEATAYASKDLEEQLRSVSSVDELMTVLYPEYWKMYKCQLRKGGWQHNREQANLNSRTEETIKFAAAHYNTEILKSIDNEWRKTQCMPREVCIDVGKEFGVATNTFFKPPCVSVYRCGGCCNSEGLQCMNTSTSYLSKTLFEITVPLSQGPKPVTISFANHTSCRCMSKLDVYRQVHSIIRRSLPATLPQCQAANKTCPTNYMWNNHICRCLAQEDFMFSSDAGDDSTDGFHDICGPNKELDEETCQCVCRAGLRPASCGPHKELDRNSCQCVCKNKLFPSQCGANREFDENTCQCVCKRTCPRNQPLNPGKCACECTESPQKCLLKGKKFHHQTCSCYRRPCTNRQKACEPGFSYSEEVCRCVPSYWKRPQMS
Description: Strep-Tactin pull-down of mixed 293T conditioned media (CCBE1-strepIII and full-length VEGF-C, 10 min at RT), Western blot with anti-CCBE1 antibody and anti-VEGF-C antiserum. Here is the method:
Co-immunoprecipitation analysis of strep-tagged CCBE1. […] Mixed media were incubated for 10 min at RT before being applied to the pull-down.
(In western blotting, separated proteins are transferred to a membrane and probed.)

Here are results for three molecules from patent US20210196795A1 (LAURANTIS PHARMA, published 2021).

In test [1], “VEGF-C C-terminal propeptide, hexahistidine-tagged (from UniProt P49767 228-419)” returned an inhibition of VEGF-C processing of 79%. Turning to “VEGF-C N-terminal propeptide, hexahistidine-tagged (from UniProt P49767 32-111)”, in test [1], the inhibition of VEGF-C processing was found to be 43%.

B1: CCBE1-strepIII (human CCBE1 with StrepIII-tag) (other)
chain: YREEPEDGDREICSESKIATTKYPCLKSSGELTTCYRKKCCKGYKFVLGQCIPEDYDVCAEAPCEQQCTDNFGRVLCTCYPGYRYDRERHRKREKPYCLDIDECASSNGTLCAHICINTLGSYRCECREGYIREDDGKTCTRGDKYPNDTGHEKSENMVKAGTCCATCKEFYQMKQTVLQLKQKIALLPNNAADLGKYITGDKVLASNTYLPGPPGLPGGQGPPGSPGPKGSPGFPGMPGPPGQPGPRGSMGPMGPSPDLSHIKQGRRGPVGPPGAPGRDGSKGERGAPGPRGSPGPPGSFDFLLLMLADIRNDITELQEKVFGHRTHSSAEEFPLPQEFPSYPEAMDLGSGDDHPRRTETRDLRAPRDFYP
notes: Secreted into 293T conditioned medium; also called strep-tagged CCBE1; not shown: StrepIII-tag (Junttila et al 2005) inserted immediately after the CCBE1 CDS
For B1, the binding result in test [2] is on record as “no binding”.
